One assay has as its target T1, TGF-β1 (Homo sapiens, UniProt P01137).
T1 construct: The mature processed cytokines produced from the members of the gene family show almost 100% amino acid identity between species; purchased Collaborative Research (Bedford, Mass.)
The assay can be described thus: 3H-Thymidine incorporation in Mv1Lu cells: neutralization of the antiproliferative activity of TGF-β1. The class given is cell-based. As for the experimental part:
Mv1Lu cells were seeded at 20,000 cells/well in a 96 well plate containing 0.2% FCS in α-MEM and incubated with the indicated concentrations of proteins for 18 hr. The cells were then pulsed with 8 μCi/ml methyl-^3 H-thymidine (NEN, Boston, Mass.) for 6 hr. Cells were trypsinized, harvested onto filtermats and counted in a β-Counter. Percent neutralization is defined as incorporation in the presence of 12 pM TGF-β1 alone set at 0%, and incorporation without additions as 100%. The difference in ^3 H-thymidine incorporation between 0% and 100% was 7.5 fold. Each point in FIG. 1 and FIG. 12 represents the mean of duplicate determinations, and the results are representative of three experiments. […] Before use, bovine thyroglobulin was spun twice in a centricon (M.W. cutoff of 10,000 Da) micro-concentrator (Amicon, Beverly, Mass.) to remove any excess Iodine and T3/T4 thyroid hormones.
Background: Incorporation of labelled thymidine or its analogues reports DNA synthesis.

For the next assay, the target named is T2, BMP-6 (Homo sapiens, UniProt P22004).
T2 sequence (P22004 375-513): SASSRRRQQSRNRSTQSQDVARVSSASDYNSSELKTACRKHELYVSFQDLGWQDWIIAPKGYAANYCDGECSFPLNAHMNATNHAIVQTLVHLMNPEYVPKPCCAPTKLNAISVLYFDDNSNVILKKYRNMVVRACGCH
The assay is described as follows: BIAcore surface plasmon resonance, binding to immobilized BMP-6. The conditions noted are these: Table 1; ligand BMP-6. As for the experimental part:
(§1) In this system, a purified protein serving as the ligand is covalently coupled to a carboxymethylated dextran surface, and binding molecules (i.e. the analyte) are passed in a fluid phase across the surface. Binding of the analyte to ligand causes a change in reflected light which is directly proportional to mass bound, and is measured in arbitrary response units (R.U.). Analyte-ligand binding is observed as both increasing response with time during the injection of analyte, and the difference in the position of the baseline before and after injection.
(§2) Schuster, R. V. Swanson, L. A. Alex, R. B. Bourret, M. I. Simon, Nature 365, 343 (1993). 1000 R.U. equals approximately 1 ng/mm^2. The running buffer was 20 mM Hepes (pH 7.2), 150 mM NaCl and the flow rate for all sensorgrams was 3 μl/min.
(§3) Regeneration of the surface to remove bound analyte was done by injection of 10 μl of 20 mM NaOH. To cyclize TRH1 peptides, the material was reduced with 5 mM DTT then brought to a final concentration of 60 μM in 25 mM ammonium acetate (pH 8.5). […]
(§4) Data was analyzed using the BIA-evaluation software (Pharmacia Biosensor). The association rate constant, kass, was calculated by first plotting the change in response with time versus response (i.e. dR/dT vs R). […] The affinity constants were calculated from KD =kdiss /kass. […]
A general note: SPR reads the build-up and loss of mass on a sensor chip optically.

A further assay concerns the target T3, BMP-4 (Homo sapiens, UniProt P12644).
T3 sequence (P12644 293-408): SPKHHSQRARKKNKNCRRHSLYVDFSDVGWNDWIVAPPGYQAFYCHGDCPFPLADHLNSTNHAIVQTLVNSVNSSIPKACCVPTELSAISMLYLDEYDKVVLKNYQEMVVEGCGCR
The assay is described as follows: BIAcore surface plasmon resonance, binding to immobilized BMP-4. The conditions noted are these: Table 2 (calculations repeated); ligand BMP-4; KD = kdiss/kass. As for the experimental part:
as §1, §2, §3, §4

Assay [1] concerns rat bone marrow stromal cells. The assay can be described thus: Dexamethasone-treated rat bone marrow stromal cell cultures (proliferation, mineralization, TGF-β levels). Type of assay: cell-based. The procedure:
The methods used in the studies described in this example and illustrated in FIGS. 16 and 17 are as follows. Femoral bones were removed under aseptic conditions from adult male Wistar rats (120 g), cleaned of adherent soft tissues, and washed extensively in antibiotics. The distal ends were removed and the marrow contents were flushed out with 10 ml of culture medium. The cells were dispersed by repeated passage through a 20 gauge needle and incubated in alpha-MEM supplemented with 15% fetal bovine serum, ascorbic acid (50 μg/ml), antibiotics (penicillin G 100 μg/ml, gentamicin 50 μg/ml, fungizone 0.3 μg/ml) and 10 mM β-glycerophosphate. […] Following 6 days of culture at 37° C. in a humidified atmosphere containing 5% CO2 in air, the cells were re-plated at a density of 1×10^2 cell/mm^2 in 96 multi-well plates (Falcon 3047), and grown for another 12-14 days. At the end of culture, the cells were fixed and stained for calcium with alizarin red-s for quantification of bone nodule area (reported as mineralized area (mm^2)/well). To assess mineralized tissue formation in the cultures morphometric measurements were carried out with the aid of a Bioquant IV system (Bioquant, Nashville, Tenn., U.S.A.) using a Leitz Orthoplan microscope. TGF-β in culture supernatants taken 4 days prior to scoring mineralization were measured with and without heat activation (80° C. for 10 min) using the Mink cells as the indicator cell line as described in FIG. 12.

The target of a further assay is T4, TGF-β2 (Homo sapiens, UniProt P61812).
T4 construct: The mature processed cytokines produced from the members of the gene family show almost 100% amino acid identity between species
T4 sequence (P61812 303-414 limits assumed): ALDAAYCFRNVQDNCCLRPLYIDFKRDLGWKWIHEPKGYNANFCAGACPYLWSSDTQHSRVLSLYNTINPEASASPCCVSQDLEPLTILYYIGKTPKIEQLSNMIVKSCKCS
The assay can be described thus: BIAcore surface plasmon resonance, binding to immobilized TGF-β2. Conditions: ligand TGF-β2. As for the experimental part: as §1, §2
Regeneration of the surface to remove bound analyte was done by injection of 10 μl of 20 mM NaOH. To cyclize TRH1 peptides, the material was reduced with 5 mM DTT then brought to a final concentration of 60 μM in 25 mM ammonium acetate (pH 8.5). After stirring in the dark for 30 min at 20° C. with 30 mM potassium ferricyanide, the peptide was mixed with AG3-X4A resin (BioRad), filtered, lyophilization and desalted on a 50×2.5 cm column of Biogel P2 (Pharmacia) developed in water, and further purified by reverse phase HPLC.
Data was analyzed using the BIA-evaluation software (Pharmacia Biosensor). The association rate constant, kass, was calculated by first plotting the change in response with time versus response (i.e. dR/dT vs R). When the slope of the line from this graph is plotted versus analyte concentration (i.e d(dR/dT)/dR vs C), kass is obtained from the slope of the line. The dissociation rate constant, kdiss, is obtained during the decrease in response with time after analyte injection is discontinued. Specifically, kdiss was obtained from the slope of the line in a plot of ln(Rt1 /Rtn) vs time. The affinity constants were calculated from KD =kdiss /kass. […]

Data on 1 substance can be found in patent US5981483A, “Compositions comprising modulators of cytokines of the TGF-β superfamily” (Mount Sinai Hospital Corporation, priority 1997, dated 1999).

T1 sequence (P01137 279-390 limits assumed): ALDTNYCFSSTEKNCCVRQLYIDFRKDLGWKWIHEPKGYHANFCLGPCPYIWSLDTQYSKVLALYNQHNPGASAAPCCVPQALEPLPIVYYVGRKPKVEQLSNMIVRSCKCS

What is called IC50 is the midpoint of a concentration-inhibition curve. One may read the Kd as a measure of binding affinity in units of concentration. For “Fetuin: Bovine fetal fetuin, glycoprotein obtained by ammonium sulfate fractionation of FCS and gel filtration (Sigma)”, in the assay with TGF-β1 (12 pM TGF-β1, FIG. 1), the “Maximal effect, percent neutralization” value was “approximately 150%”. Also, the IC50 with TGF-β1 (18 pM human TGF-β1, FIG. 12, read-out: IC50, blocking of anti-proliferative activity of exogenously-added TGF-β1) was ~3000 nM. Also, the kass in the assay with BMP-6 is 2900 ± 500 M⁻¹ s⁻¹; in the assay with TGF-β2 (Table 1), 550 ± 120 M⁻¹ s⁻¹; with TGF-β2 (Table 2 (calculations repeated)), 550 ± 120 M⁻¹ s⁻¹. Also, the Kd with BMP-4 is 120 nM. Besides, the “BMP-2 induced osteogenesis in the cultures” value in assay [1] (data not shown) is “could be blocked”. The “deposition of calcium-containing matrix” value in assay [1] (dexamethasone-treated bone marrow cultures, latter two weeks, FIGS. 16 and 18) was “inhibited deposition of calcium-containing matrix”. Besides, the “cell number during the first week of culture (proliferative phase)” value in assay [1] (dexamethasone-treated, FIG. 15) was “stimulated an increase in cell number”.
